Test results taken from the supplement of paper PMC10567573.
± gives the standard deviation.

Assay: protein stability index of a GFP-peptide fusion (GPS, HEK-293T) (PSI 1-6); higher = more stable
Settings: c terminus: a fixed tail appended
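Further: 24-mer peptide tiles fused after GFP, lentivirally expressed, FACS-sorted into six equal bins by GFP/DsRed ratio, decoded by Illumina sequencing, PSI is the read-weighted mean bin number.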

Sequence	protein stability index (treatment: DMSO)	protein stability index (treatment: MLN4924 1 uM, 8 h)
IKKKGWRRSSLVITTKIFWGGKAE [KCNAB2]	2.51 ± 0.55	2.75 ± 0.64
GAAFRDHQLLEPIRDFEARKCPVH [TRIM29]	3.73 ± 0.26	3.88 ± 0.17
VLPHVPLGVIQRDLAKTGCVDLTI [AUP1]	2.14 ± 0.25	2.37 ± 0.37
KIYAYPSNITSETGFRTISSLEEI [TMEM192]	2.59 ± 0.15	2.9 ± 0.3
QRTHTGEKPYGCIDCGKAFSQKSC [ZNF649]	3.47 ± 0.27	3.87 ± 0.23
QLWELGKVLRKAGLSAGYVDAGAE [LPCAT4]	2.13 ± 0.27	2.13 ± 0.36
KLLPHQPRIVEMKKGSNGYGFYLR [PDZK1]	2.37 ± 0.12	2.47 ± 0.6
KKDRPLARRKSELPQDPHTKKALE [PPP2R5C]	5.11 ± 0.2	4.96 ± 0.12
MGKSASKQFHNEVLKAHNEYRQKH [GLIPR2]	3.94 ± 0.27	3.96 ± 0.28
LPESLARSLLPSTEYQKQLLAAQV [FBF1]	2.75 ± 0.46	2.56 ± 0.26
MAAHLKKRVYEEFTKVVQPQEEIA [INTS4]	3.67 ± 0.093	3.68 ± 0.7
GSAGGLGSTLGGSSYSSCYSFGSG [KRT17]	3.29 ± 0.13	3.43 ± 0.33
CMWSKKCSGVACLVKDNPQRSYFL [WASL]	2.26 ± 0.29	2.04 ± 0.27
QPADVFPRLFKEWNITKLSIEYDS [CRY1]	2.7 ± 0.32	2.92 ± 0.3
MRDRHVNMHLNLRPFDCPVCNKKF [ZBTB22]	2.99 ± 0.32	3.44 ± 0.55
ILHPELTVDSMIPAYATTRIRSQI [GDAP1]	2.52 ± 0.2	2.55 ± 0.17
KASNPDLKLWEIGKIIGGMWRDLT [SMARCE1]	3.42 ± 1.9	2.55 ± 0.64
QLVNSSADNMLEYKSWLKNLAKEQ [PPEF2]	3.24 ± 0.17	3.77 ± 0.5
EAPALGGGEYQEPGGNVKGVWAPP [BEX5]	4.57 ± 0.37	4.71 ± 0.14
EKLCSISLSHINAYACLVCGKYFQ [USP39]	2.67 ± 0.56	2.61 ± 0.58
TVAMSTLNFCGPNVINHFYCDLPQ [OR3A1]	2.39 ± 0.47	2.22 ± 0.17
EVDSGRQIEYEYKLAQALHEMREQ [LMNB1]	4.51 ± 0.23	4.43 ± 0.23

Sequence	protein stability index (treatment: DMSO)	protein stability index (treatment: MLN4924 1 uM, 8 h)
EYSPEEESEPPAPNIRNMAPNSLS [TRAF3IP2]	5.04 ± 0.36	5.07 ± 0.27
SVLKLHHSLQQSEPDLRHLVLVVN [SERTAD1]	2.46 ± 0.24	2.04 ± 0.25
LRQHGPPNIVVAIAGNKCDLIDVR [RAB22A]	2.46 ± 0.39	2.4 ± 0.52
QNRRAKLKRSHRESQFLMAKKNFN [HESX1]	3.43 ± 0.24	3.48 ± 0.43
PVNPELTAGPITGLVYRLNRFRVE [TRIM43]	2.71 ± 0.29	2.85 ± 0.33
ACPVCSKMVPRYDLNRHLDEMCAN [FAN1]	2.6 ± 0.49	2.27 ± 0.17
EGRGPVTPLHLDLTQLHRLSLESS [PLEKHN1]	3.4 ± 0.31	3.28 ± 0.22
WLVHRDPEGSVSGSQPNSGLALES [NFE2L1]	3.78 ± 0.31	3.97 ± 0.12
NLEGNELQRHADEFLLDLGHHERS [FUT8]	4.84 ± 0.062	4.83 ± 0.31
CLDTIDKSTMDAISAEGFTDIDID [BTBD1]	4.88 ± 0.19	4.82 ± 0.22
SLKLALLFYILTFVGAIFNGLTLL [RTN2]	3.88 ± 0.94	3.04 ± 0.11
PNPPTLQEAGLSHTEVLFVQDLTD [FAF2]	4.54 ± 0.27	4.64 ± 0.16
NVLLFKKQNPGKFCLLSCGILTFL [RETREG3]	2.43 ± 0.69	2.89 ± 0.73
EAVSDSTPFLTNHGAHKAEKKLFE [ZNF263]	4.65 ± 0.5	4.42 ± 0.41
YHTGKTPFVCPECGQPCSQKSGLI [ZNF649]	2.53 ± 0.59	3.24 ± 0.58
GAEPGTYLTGTINGDPESVASLHW [ADAMTS4]	4.52 ± 0.87	3.67 ± 0.62
RKTHVLLGRSHDTVQEAATSRRAR [MFSD9]	4.64 ± 0.41	4.73 ± 0.27
EIRMWQTREKAKFSDGEKCRREAF [PHTF1]	2.98 ± 0.14	3.1 ± 0.31
SRILKKTVYNEMDKNRCELLSFLL [EDNRA]	2.14 ± 0.67	1.96 ± 0.36
DDIARIYQPKRYALSPKTTITMAH [FAM98B]	2.77 ± 0.21	2.92 ± 0.17
LLASSDAALSASMASLLEDLSHIE [SERTAD1]	3.06 ± 0.37	3.27 ± 0.33
PNRFLRGHRPPPARSGHRCVADNT [KLHDC10]	4.04 ± 0.2	4.32 ± 0.34
